The subject of series [1] is offspring of pregnant mice (MIA mouse model). In words: Marble burying test in adult offspring. The series is classed as in vivo. An excerpt: Maternal Immune Activation. Mice were mated overnight and females were checked daily for the presence of seminal plugs, noted as embryonic day 0.5 (E0.5). […] Each dam was returned to its cage and left undisturbed until the birth of its litter. All pups remained with the mother until weaning on postnatal day 21 (P21), at which time mice were group housed at maximum 5 per cage with same-sex littermates. […]
Marble burying test. […] At the end of a 15-min exploration period, mice were gently removed from the testing cages and the number of marbles buried was recorded. A marble burying index was scored as 1 for marbles covered >50% by bedding, 0.5 for ˜50% covered, or 0 for anything less. […]
Marble burying test One week following the social approach task, male mice were acclimated for 0.5-1 h in separate clean holding cages. […] At the end of a 15-min exploration period, mice were gently removed from the testing cages and the number of marbles buried was recorded. A marble burying index was scored as 1 for marbles covered >50% by bedding, 0.5 for ˜50% covered, or 0 for anything less. […]

Series [2] has the same test system. In words: Three-chamber social approach test in adult offspring. Type of series: in vivo. The protocol: Maternal Immune Activation. Mice were mated overnight and females were checked daily for the presence of seminal plugs, noted as embryonic day 0.5 (E0.5). On E12.5, pregnant female mice were weighed and injected with a single dose (20 mg/kg; i.p.) of poly(I:C) (Sigma Aldrich) or PBS vehicle. Each dam was returned to its cage and left undisturbed until the birth of its litter. All pups remained with the mother until weaning on postnatal day 21 (P21), at which time mice were group housed at maximum 5 per cage with same-sex littermates. For the IL-17 cytokine blockade experiment, monoclonal IL-17a blocking antibody (clone 50104; R&D) or isotype control antibody (IgG2a, clone 54447; R&D) was administered 6 h before maternal immune activation (FIG. 2) via i.p. route (500 μg/animal) or 2 days after maternal immune activation (FIG. 5) via i.p. route (500 μg/animal).
Three-chamber social approach. Twelve-week-old male mice were tested for social behavior using a three-chamber social approach paradigm. Experimental mice were habituated for 1 h in separate clean holding cages and then introduced into a three-chamber arena with only empty object-containment cages (circular metallic cages, Stoelting Neuroscience) for a 10-min acclimation phase in two 5-min sessions in a 3-4 h period. The following day the mice were placed in the center chamber (without access to the left and right social test areas) and allowed to explore the center area for 5 min. […] Experimental mice were given 10 min to explore both chambers and measured for approach behavior as interaction time (i.e. sniffing, approach) with targets in each chamber (within 2 cm, excluding non-nose contact or exploration). Sessions were video-recorded and object exploration time and total distance moved were analyzed using the Noldus tracking system. A social preference index was calculated as the percentage of time spent investigating the social target out of the total exploration time of both objects. […]

The mark [3] stands for this setting: intra-ventricular injection at E14.5, compared with sham injection.

The results in this text go back to patent US20180371076A1, “MATERNAL TH17 CELLS AND PSYCHIATRIC DISORDERS” (New York University, priority 2017, published 2018).

On to poly(I:C), for which, in series [1] (poly(I:C)-injected vs PBS-injected mothers), the “marble burying in adult offspring” value is “enhanced marble burying”. Besides, the “social interaction in adult offspring” value in series [2] (prenatal exposure to MIA (poly(I:C) at E12.5)) is “social interaction deficits”.

B1: recombinant IL-17a protein: Recombinant mouse IL-17a cytokine (R&D), injected into the fetal brain ventricle (protein, UniProt Q62386 26-158, looked up)
Interleukin-17A: AAIIPQSSACPNTEAKDFLQNVKVNLKVFNSLGAKVSSRRPSDYLNRSTSPWTLHRNEDPDRYPSVIWEAQCRHQRCVNAEGKLDHHMNSVLIQQEILVLKREPESCPFTFRVEKMLVGVGCTCVASIVRQAA
Take B1: in series [1] (setting [3]), the marble burying behavior result was “increased marble burying behavior”. Further, in series [2] (intra-ventricular injection at E14.5), the “mobility (total distance in social approach test)” value is on record as “not due to group differences in mobility”. Moreover, the social approach behavior result in series [2] (setting [3]) is on record as “social approach deficit”.
